Assay [1] deals with whole bacterial cells of P. gingivalis (Porphyromonas gingivalis).
In assay [2] the target is T1, recombinant GST-gingipain rGP-1 fusion protein.
T1 construct: also called GST-Gp; GST-Gingipain recombinant protein
Nature of the assay: ELISA, wells coated with rGP-1 and probed with varying concentrations of KB001. A general note: ELISA stands for enzyme-linked immunosorbent assay.

B1: KB-001 mouse monoclonal antibody (antibody, V domains shown)
VH: EVQLKQSGPGLVAPSQSLSITCTVSGFSLSIYSVHWVRQPPGKGLEWLGMIWGGGSSDYNSALKSRLSISKDNSKSQVFLKMNSLQTDDTAMYYCARNGNFYAMDYWGQGTSVTVSS
VL: QIVLTQSPAIMSASLGERVTMTCTASSSVSSSFLHWYQQKPGSSPQLWIYSTSNLASGVPARFSGSGSGTSYSLTISSMEAEDAATYYCHQYHHSPYIYTFGGGTKLEIKR
notes: also called Pg/gingipain antibody
In general, Kd refers to the equilibrium constant for the complex coming apart. A low value points to a tighter complex. For the molecule B1, in assay [1], the equilibrium dissociation constant (Kd) worked out at 11.4 nM. The binding result in assay [2] is listed as “binds”.
